Assay: protease stability score; higher = more stable; yeast display proteolysis, trypsin and chymotrypsin;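 note: relative to predicted unfolded state with 0 unfolded-like and 1 meaning tenfold more protease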

| Sequence | protease stability score |
| --- | --- |
| SEIEEEAKHVSELMVRWMETGDEKEIYKFADPHVRLEYNGREFHGRESILKHRREIIEKWGVTNIRVSPETFDVINGVVHVELILKVNGRNVIVHILIRKIDGRWRIDSESFI | 1.5 |
| SEIEEEIEQAYKLTKHHWETGDEKDIRRNADPHVRVYFNGREYHGWEVLHEVLRLMGAKHVEIHRYEIQGEYVHIDSEVRQGDKRFRMHVESYKVNGRWFIETVFIK | 0.749 |
| SEIEEELSSDRRDFIRAVLTGDFERHIEQMDPNVKLIFNGKEFHGREEVHRSWEELIDRWGVDKFEYRIEDMEHFPGHLMIHGTLNYNGKRERVIIYAVKFNGRWRVERVEIK | 1.55 |
| SEIEEESEEHLNLYMHAMHTGDWHTLERLADPNVRMDVNGQEHHGREEFVKVLVHMIEHLGIDHVRVKHLDLQGDKLHADTTEEVNGRRIHTILDVTKINGRWFITSLEIH | 0.495 |
| SEIEEFTRKLLEMFLEAFLTGDWKFLWELADPNVRLNVGDKHAHGMESSKHLLDEWLTEMRLRDMHVHSVHFQGEKRDNNGKEHRIYGDKVRLWDVHLHLVIVNGRLKEVNIEER | 1.31 |
| SEIEEHIKHMAHEILHNMLTGDWRRFSELADPNVRITVQQGDKVREYHGWESWKLLLDELRLHRFEFKDMHVQGNYAHIIGRQVGEFDGVRQDRDIEIIHVVVNGRIKQVIVHVE | 1.86 |
| SEIEELMKISLREFLHSSETGDEEHHNRYADPNVRLEIGDKTLIGWEALEHLLEHWKREAGIEKIELHIHVTRIHVQGEKLEFDGHLEVRQGDKVNHVKVTLVITKIDGKWVLHSVVFI | 0.367 |
| SEIEELVERAEKEHLRTLMTGDWRLFEHNLDPNTKLELDYDGRKIERHGRRHMSHYLKELFKSLGIKHMHLEDSHIQGDKLELHLHFHIGDKTRNVIIIVRKVNGQWIVETLIVHEH | 0.829 |
| SEIEEQVEEAYRLILEMLHTGDEHTMHELIDPHVRHRIDGQTYHGREFLIKWLVKLREDWGVEKISVKLKFITIIGDFALVVVDIHINGVKLKNHTLATKVNGRWRDHTVNIEHI | 0.637 |
| SEIEERVYRVVETFWMALRTGDEETLDDLLDPNVKLDIDGKEFHGREKYKEFLELFKGVTVESVEFRDSKISGEKAIIHVHVTLRQGDKEEHKSTELVLYKINGRWIIEHVRLK | 2.21 |
| SEIEETTRQASEFNLHSFRTGDEKMVHELADPHVRTDFNGKRLHGRESLTKELDKLLKDLGVDHVRIEHVNIYNGRVDIIMRVEVGDKEWKITIIAIKIDGKWKLESIEME | 0.132 |
| SEIEHNLRLAEELLEKVTQTGNEELLHDLIDPNVRFYINGRDFVGREKNIKVFRSWGIDRVHFESEHIDIQGNKINFHGQINVNGKSMDTQIIAVKVNGRWLIKESWVD | 0.565 |
| SEIEHVVKRAIKIFIEVLETGDWELMWRLLDPHVRIEVGNKEKHGRHTIEEMIRRVDHIHINERQIHDIEIQGDKVHLHIHLNVEERVGDKRLNFEFELHIIAEKVNGRWIVRSVTIK | 1.62 |
| SEIEKDAKDALKWFVDTTRTGDEDLWLRLLDPHVRVIIGDKEYHGREESEKLIRHLSDLFGVDKVEVILNLERIHIQGNKIDVKGKLEVRQGNYTDDREIEMVMIKVNGRWFIKYEVIK | 1.18 |
| SEIEKESEKIWKIWFHNLETGNWREIARLFDPHARWRELVDGREVNIVGREEVVRLLSENSEHLRLDDFRETSVRVIGDFVRSDVEMVGTVDGQHERRRVEVIIVTINGRLHSITITHL | 1.15 |
| SEIEKLLIDWLEHMVRAHKTGDWQNLLNMLDPHTRLNINGQHNIGRDKLTHLIREEEDRFGVDNIELHLHLEDIDIQGEKVNMKVQRHVNVNGREYTDEVELIIVKINGRWLLESIHVH | 0.932 |
| SEIEKMFHIALKLWVRTMKTGDFEDLLRLLDPNWRLEVNGRTHHGREELEHEIRELGIDQFHLHHIEHKEFLVQGEKITIDGRINGEFNGVQYNTRVIIIAKKINGRWVLHSEEIK | 1.37 |
| SEIERDAREFLRVLLEHLHTGDEDDLARLADPHVLIDIDGREIVGRELFREIWHEMGVNHTEYKDLDIQGNKLHIHINVNVNGKVRSLRIVVRKVNGRWFIEREHYE | 1.52 |
| SEIERDVHELIKEVSELTHTGNEEHSKMLLDPNYRVEIGDKTIHGRHLVSHWIKQMRSDITVEIREVRLIDGRLLADIRFVVRIRFDGVELHIEERRVLFWLKVDGQWIIESQRVH | 0.827 |
| SEIERESKIFSKIEKHVWETGDEKILSEMADPHARIEIGDKEHHGREEFEKVAHEIVEFFPNMRFRVEHMDVQGNKVDLDTRLHFENHSHRYQVISLKFNGRWLIKSVKIE | 1.08 |
| SEIERLLEEWMELVIHSWLTGNEELFTRMFDPNTRLEVEVGDKHDRHIGREEANKWMETLRREIRIEDIEIKEVRIFDGVAHNDGTLHRRVGDKKDYVRVRLILIIYNGKIHHVKIIVR | 1.03 |
| SEIETILEKVLRELEHRKETGDEESFERYADPNVRMSVDGKDIHGREEVLRSWLETWKLMGVDHSHLHVTDLRIIGNKLEIDGIVRFNVGDKIVHRHSRLIMLKINGRWMIKQVEIH | 1.22 |
| SEIHDIARKMMNIVRRLLHTGDEDKWLDLADPDVRIHINGRDFIGRELWVQIYRELGVDHLDLKIERVEIVDGVIILHGTLDIHYGDKTHEIEINIFIRKVNGRWRLKLEHHK | 1.71 |
| SEIHDLITTMSRLFWDVIRTGDFEALEKLLDPHTRFEFLIGDKTEEYVGRHNVVRAIMDIWERLGIDHMHLKNVRYQGEKSDIDTEMHFDGRTFDTKIIIVVIDGKLHNVSIEFR | 1.39 |
| SEIHELAILVLKWLLDSMSTGDEESLRRLLDPHTRIHIDGKDLHGRHFLERILQEIRHEVKEYHIRDVRDINGVVTLDAHVRGNEYFDGRNHEHRTDTRLIIDKINGRWRIRELKFE | 1.12 |

| Sequence | protease stability score |
| --- | --- |
| SEIHRDVEEFMKRFDRDLETGDEKILEKLVDPDVKTIVNGKIFHGRETFIKLMLTIFKEMRNEHVELQSLEVQGNKAHAETRVRLTIGDWTFYLRTELHLEKYDGRWRFHSVTIE | 1.93 |
| SEIKEEMDEVSELWQRALETGDEHEVLKLMDPHARIDFDGVDHVGWREVTKSLKHMRIDHIKIRHITVIGNKIDIDGEVNMTVNGQERQETVHIELIVVNGRIRHIRIHLV | 0.396 |
| SEIKENLHRFFERWQEVLRTGDERHIRDMADPNVRLDVNGKEIHGRELFANWIREHIERVDHISVHIHDMDIYGNKAKIRGELELDQGDKKHHLDLEIVTTKVDGKWILRSVHVR | 2.12 |
| SEINERTERLMKWLLHAILTGDEDLLSTLADPNVRVIVGDKSVIGMESWYRLFEEELRHLGIKHMQLDPRHVDTQGDKARVETRLRVWVDGVELTHETRLHLDVVNGRITKISIRIH | 1.16 |
| SEIQDISDLAFELIWRSLNTGDEHMLLELLDPDARTHVNGKTFHGRESAVHLFRYLLTLMGIDHIHIEDFKIEFQGDKVIIRMTTRSHQGDKEFHTRFLIIVRKVDGRWINEEISIHVE | 0.937 |
| SEIQHELSEMMKIVIHQFLTGDEEEFRHLVDPNVKFIFNGRLLIGWKSLSDFLKEHLERVDHWHVEIKRVRVYDGRLDISGRLRLVQGDKEHNLDVRMHLETIDGKITSVEIRVH | 1.28 |
| SEIREETQRVIEEFLRNHKTGDESLFHELADPNARLHFHQGDKRLDFIGREHVLEFWSRVSKELGVDHVELKDHKLQGDKMILHIESEVNGRRMIIIDISDKIDGRWVLHTLHIHVE | 0.466 |
| SEIWHLAENLSHLWMHKILTGDEDSIRNLLDPNARVHVNGKEVHGREETVKFMRHRVDEMGVDHMHFELKRFEVQGNYAIHHGTLIIHVDGREIRIESTIHLLKVNGRWLITDSSER | 0.845 |
| SEKDDFLEQLQKLWHEILVTGDEHRLKKLADPDMRFIYGDFESIGREEFLQMMRDMLREIRITHIELRTFDAYDGQLIILTTQHVSIGDKRIELTVHLFWIKVDGKWKLRRLKFE | 1.79 |
| SEKDDHALRVLEEYLHLFLTGNEEVMERLVDPHVRFIYGDKEFHGRELMIRWIREEREQYDHIHWEIRHFESQGDKAHSEVELRIRQGDKRIHVDMHIHIEVVNGRWKRIEVRER | 1.78 |
| SEKDELLDEILEKLRHDVETGNERLIRKNLDPHVKTDFNGRELHGMDLALRVWREHHEKVKNIRLEIKSVESVDGVVIIHMHVEIDGRHLDVILRWFVVNGRVKSVEIEIK | 0.232 |
| SEKDERVHELLRHVEHALRTGDWEEMVKLADPHVRVIFNGKTLHGREMMNRFWEHFGADHIRIRDEDDYNGVVIVHIETVVGDKHHHVHIISEKIDGKWTMRELSIE | 0.933 |
| SEKDQALTEMLEIFLQVHRTGNEEDMHRLADPNARSVYNGQDLHGWEHVFNIMRRIDHIHHVTVKRVEYFDGRVSLDGHINIEIGDKSYHIDISISLRKVDGQWHIESIEFI | 0.721 |
| SEKDREMEHFAKILISNLVTGDEEEIFRMADPHYRYQQGDKRIHGREEWRQWLREERERVDHIEFKIHRVEQQGEKIHLDWEIQIEIGNYEIKDKTTIIFIVVDGRLKQIEVRHH | 0.786 |
| SEKEDIERKWAERTLETIETGDEHTRRELLDPHVRIIINGKDHHGREFAEEEWRRLGVDHFRTHEYEIQGNFLHVRGEMEIDGKRVEVILNFTIVDGRIKQIEMVYL | 2.03 |
| SEKEEDITRFITMWARYLVTGDEDRSRELLDPSVKMHIGEKNLIGREKLLEFVHRMWRRVDHIHIHFHTIDIQGDKLKVDFEIELRQGDKSDSIRTSMIVDKVDGRWILHKITME | 1.74 |
| SEKEEDLRRAEQDFLREMETGDEHLTSELADPHVRIDIGDKVYHGREFWSKFVRRVKNATIQITHRQYQGDKLWLDGILNVDGRNIRMLVIIHKIDGVWVFKYVDIH | 2.27 |
| SEKEEELHRALRLWLHAWETGDFHTITKLLDPHARSDVNGVELHGREEISRHHRELRTHDMRIRDEKVHMQGDYLIIILHIHTDVQIGDKRIETDLLIIIIHVKVNGRWSLRSISLEFR | 0.035 |
| SEKEEHLHELTRLLVEWFITGDEEDNLEQADPHVRMILIVDGRIIERHGREKLYEEAHRHLKRLGIDHYRIKHVDIQGEKVKINGQLEFNGVIYDARLTFVVINGKLHQEYRSEE | 1.64 |
| SEKEEISRRLLELWLKADATGDEKLLLKLMDPDVRIDVDGVENHGMELVTEFLREERDRIDHKIIEIKEMRVVGDKVHMDIRINIEVNGKENETRVELRLEIIDGKIRSVKIIKR | 0.733 |
| SEKEELDQKFIEDYIRHLLTGDFESLTKMADPNVRLSIDGQNHHGRENFERFAFEWIEKYKNVRIHVRDVHVVDGQAHIIMTLDINGKTREVHIEVFIVNGRIKSNELRYR | 1.36 |
| SEKEEQAFRLFKDIVRSMKTGDEDRLHELFDPNVRMDFNGVESHGRELALEVIRIVWREIRIKNIEVHHIEVIGNYVRIDSRLDGRYDGRRIILEMHVQLVKVDGQWIVHNIEIK | 2.12 |
| SEKEEQARKLAKDWSHDTDTGDFKSIFDLIDPDVRVEIGDKRFVGWELVVKWHEHHRHEFGVTQIRHRVDDMELQGEKVIVRGTLIYDGVDFKVHLILEVINGRIRRVEIRIE | 1.04 |
| SEKEERALELIKRFWESELTGNEDWLRHLADPDYLYILLIDGKEHNFHGMETWYEKINRIKGVQIDHLEIRHENVIGDKVEIDGRMDITVNGKRIDKRVELQYSVVDGRFKSVKITNI | 0.809 |
| SEKEEVLREHARRVTEWWLTGDWEEFMKNMDPNARLQIGDKTSHGREEMYRVLKEIEHRLGVDHIEIKDEKVFNGRNHLDTRLHIGDKSINIRIHIDFVNGRLKFVRIEVD | 1.18 |

From the NTF2 design screens of Basanta et al. (2020)
